Values of other authors, collected in paper PMC5023690.

Columns and labels:
[1] = target: ONE-GC M836-C1110 (Rattus norvegicus) (UniProt P51839); experiment: SPR; given as Ka
[2] = target: ONE-GC M836-C1110 (Rattus norvegicus) (UniProt P51839); experiment: SPR

UniProt P51839, sequence (P51839 836-1110): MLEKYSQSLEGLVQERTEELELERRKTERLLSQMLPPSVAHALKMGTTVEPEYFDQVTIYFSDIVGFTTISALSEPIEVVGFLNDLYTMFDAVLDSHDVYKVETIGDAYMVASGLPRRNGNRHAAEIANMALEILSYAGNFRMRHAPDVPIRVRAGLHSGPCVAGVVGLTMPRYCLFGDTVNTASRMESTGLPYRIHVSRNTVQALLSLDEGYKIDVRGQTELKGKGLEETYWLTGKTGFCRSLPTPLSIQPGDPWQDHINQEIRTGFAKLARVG

In the case of Frq (frequenin) (from UniProt P62166), the Kd [1] is listed as 426 nM and the Kd [2] is listed as 430 nM.
